Measurements from article PMC10452355, “Phosphoserine Aminotransferase Pathogenetic Variants in Serine Deficiency Disorders: A Functional Characterization” (Biomolecules, 2023).

Molecular target: the molecule itself
Assay: SEC; Superdex 200 Increase 5/150 GL, 50 mM HEPES pH 7, 300 mM KCl, room temperature, 0.3 mL/min; loaded at 23 µM, eluting at around 7.5 µM; apparent mass against a calibration curve; self-association (dimer)

B1: phosphoserine aminotransferase (PSAT), wild type, human, PSAT beta (enzyme)
chain: MDAPRQVVNFGPGPAKLPHSVLLEIQKELLDYKGVGISVLEMSHRSSDFAKIINNTENLVRELLAVPDNYKVIFLQGGGCGQFSAVPLNLIGLKAGRCADYVVTGAWSAKAAEEAKKFGTINIVHPKLGSYTKIPDPSTWNLNPDASYVYYCANETVHGVEFDFIPDVKGAVLVCDMSSNFLSKPVDVSKFGVIFAGAQKNVGSAGVTVVIVRDDLLGFALRECPSVLEYKVQAGNSSLYNTPPCFSIYVMGLVLEWIKNNGGAAAMEKLSSIKSQTIYEIIDNSQGFYVCPVEPQNRSKMNIPFRIGNAKGDDALEKRFLDKALELNMLSLKGHRSVGGIRASLYNAVTIEDVQKLAAFMKKFLEMHQL
notes: human phosphoserine aminotransferase, splice form PSAT beta (the long form; PSAT alpha lacks 46 amino acids between V290 and S337); PLP-dependent homodimer; also called wt PSAT; WT; source: E. coli BL21(DE3) tuner, purified (IMAC, Talon superflow); not shown: His tag (from the IMAC purification on Talon)
Q: How did the “stoichiometry N” value turn out when B1 was run?
A: The value was 2.
